Here are results for 28 molecules from patent US20240059799A1 (Pfizer, published 2024).

B1: TL1A-0042 (antibody, human IgG1, kappa, V domains shown)
VH: QVQLVQSGAEVKKPGASVKVSCKASGYDFTYYGISWVRQAPGQGLEWMGWISTYNGNTHYARMLQGRVTMTTDTSTRTAYMELRSLRSDDTAVYYCARENYYGSGAYRGGMDVWGQGTTVTVSS
VL: DIQMTQSPSSLSASVGDRVTITCRASQSVSSYLAWYQQKPGKAPKLLIYDASNRATGVPSRFSGSGSGTDFTLTISSLQPEDFATYYCQQRSNWPWTFGQGTKVEIKR
notes: parental heavy chain with IGKV1-39*01 light chain; human IgG1 effector-function-minimized/kappa
B2: TL1A-0266 (antibody, human IgG1, kappa, V domains shown)
VH: B1 VH with F29Y, G56T, R62P, M63S, R77S, N100S, Y107F
VL: B1 VL
notes: human IgG1 effector-function-minimized/kappa
B3: TL1A-0025 (antibody, V domains shown)
VH: B1 VH with T58D, R62D, M63S
VL: EIVLTQSPATLSLSPGERATLSCRASQSVSSYLAWYQQKPGQAPRLLIYDASNRATGIPARFSGSGSGTDFTLTISSLEPEDFAVYYCQQRSNWPWTFGQGTKVEIKR
B4: TL1A-0085 (antibody, IgG1, V domains shown)
VH: B1 VH with I51A, R62Q, M63K
VL: B3 VL
notes: IgG1/kappa variant of TL1A-0002
B5: TL1A-0090 (antibody, IgG1, V domains shown)
VH: B1 VH with G56T, N57G, R62P, M63S
VL: B3 VL
notes: as for B4
B6: TL1A-0094 (antibody, IgG1, V domains shown)
VH: B1 VH with N100S
VL: B3 VL
notes: as for B4
B7: TL1A-0086 (antibody, IgG1, V domains shown)
VH: B1 VH with I51A, R62P, M63S
VL: B3 VL
notes: as for B4
B8: TL1A-0089 (antibody, IgG1, V domains shown)
VH: B1 VH with G56T, N57G, R62Q, M63K
VL: B3 VL
notes: as for B4
B9: TL1A-0084 (antibody, IgG1, V domains shown)
VH: B1 VH with I51A
VL: B3 VL
notes: as for B4
B10: TL1A-0083 (antibody, IgG1, V domains shown)
VH: B1 VH with N55G, R62Q, M63K
VL: B3 VL
notes: as for B4
B11: TL1A-0193 (antibody, IgG1, V domains shown)
VH: B1 VH with N100Q, A106E
VL: B3 VL
notes: as for B4
B12: TL1A-0097 (antibody, IgG1, V domains shown)
VH: B1 VH with N100Q
VL: B3 VL
notes: as for B4
B13: TL1A-0087 (antibody, IgG1, V domains shown)
VH: B1 VH with T53A, R62P, M63S
VL: B3 VL
notes: as for B4
B14: TL1A-0092 (antibody, IgG1, V domains shown)
VH: B1 VH with G56T, N57V, R62P, M63S
VL: B3 VL
notes: as for B4
B15: TL1A-0098 (antibody, IgG1, V domains shown)
VH: B1 VH with N100E
VL: B3 VL
notes: as for B4
B16: TL1A-0096 (antibody, IgG1, V domains shown)
VH: B1 VH with N100V
VL: B3 VL
notes: as for B4
B17: TL1A-0250 (antibody, IgG1, V domains shown)
VH: B1 VH with G56T, N57V, R62P, M63S, R77S, N100S, Y107F
VL: B1 VL
notes: IgG1/kappa
B18: TL1A-0196 (antibody, IgG1, V domains shown)
VH: B1 VH with N100S, A106E
VL: B3 VL
notes: as for B4
B19: TL1A-0088 (antibody, IgG1, V domains shown)
VH: B1 VH with N55G, R62P, M63S
VL: B3 VL
notes: as for B4
B20: TL1A-0160 (antibody, IgG1, V domains shown)
VH: B1 VH with T58E, R62P, M63S, A106L
VL: B3 VL
notes: as for B4
B21: TL1A-0167 (antibody, human IgG1, kappa, V domains shown)
VH: B1 VH with R77S
VL: B3 VL
notes: TL1A-0002 heavy chain with R(H76)S, TL1A-0002 light chain
B22: TL1A-0147 (antibody, IgG1, V domains shown)
VH: B1 VH with T58E, R62Q, M63K
VL: B3 VL
notes: as for B4
B23: TL1A-0095 (antibody, IgG1, V domains shown)
VH: B1 VH with N100T
VL: B3 VL
notes: as for B4
B24: TL1A-0195 (antibody, IgG1, V domains shown)
VH: B1 VH with N100Q, Y107H
VL: B3 VL
notes: as for B4
B25: TL1A-0197 (antibody, IgG1, V domains shown)
VH: B1 VH with N100S, Y107F
VL: B3 VL
notes: as for B4
B26: TL1A-0091 (antibody, IgG1, V domains shown)
VH: B1 VH with G56T, N57V, R62Q, M63K
VL: B3 VL
notes: as for B4
B27: TL1A-0093 (antibody, IgG1, V domains shown)
VH: B1 VH with T53A, G56A, R62P, M63S
VL: B3 VL
notes: as for B4
B28: TL1A-0194 (antibody, IgG1, V domains shown)
VH: B1 VH with N100Q, Y107F
VL: B3 VL
notes: as for B4

Positions count from the first letter of the chain named.

One assay has as its target T1, recombinant human TL1A (human, UniProt O95150 71-251).
T1 chain: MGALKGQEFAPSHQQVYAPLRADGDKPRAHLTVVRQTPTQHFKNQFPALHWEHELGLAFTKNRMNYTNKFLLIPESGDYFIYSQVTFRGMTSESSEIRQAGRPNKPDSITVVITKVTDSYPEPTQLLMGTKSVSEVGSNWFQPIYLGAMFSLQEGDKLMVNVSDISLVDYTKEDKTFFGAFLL
The experiment in a line: cell-based or functional assay.
Consider B1, for which the “TF-1 NF-κB reporter cell bioassay IC50” value is 25.9 nM; the “TF-1 NF-κB reporter cell bioassay, Bioactivity relative to TL1A-0002” value was 0.7 fold; the “Whole blood IFNγ assay IC50” value was 0.748 nM; the “Whole blood IFNγ assay, Bioactivity relative to TL1A-0002” value was found to be 0.9 fold.
The matching figures for B2: 37 nM, 1.1 fold, 0.745 nM and 0.9 fold.

The target of another assay is T2, recombinant human TL1A (human, UniProt O95150 71-251).
T2 construct: homotrimer; biotinylated for SPR capture; the ELISA paragraphs say only 'recombinant TL1A'; also called TNFSF15
T2 chain: T1 chain
Kind of assay: competition ELISA vs bio-TL1A-0002. Here is the method: (§1) For this competition ELISA assay procedure, 96-well high binding plates (Corning, product number 3590) were coated with 1 μg/mL recombinant TL1A in 100 μL/well in Phospate Buffered Saline (PBS) overnight at 4° C. Plates were then blocked in PBS+0.02% casein solution and washed with PBS+0.05% Tween-20 following standard ELISA protocol. […] Plates were washed with PBS+0.05% Tween-20 following standard ELISA protocol, and Streptavidin-HRP (Southern Biotech, product number 7100-05) diluted to 1:10,000 in assay buffer was added to plates and incubated for 25-30 minutes at room temperature. Next, the plates were washed with PBS+0.05% Tween-20 following standard ELISA protocol, and then TMB substrate (BioFX Laboratories, catalog number TMBW-0100-01) was added to plates. Reactions were stopped after approximately 5 minutes by adding 0.18 M ortho-phosphoric acid to each well and absorbance was read at 450 nm.
In the case of B3, the “Bioactivity relative to TL1A-0002” value is 1.6 fold and the IC50 (in general, the concentration that inhibits the measured activity by half) was determined as 7.2 nM.
For B4 the same measures were 1 fold and 4.7 nM.
For B5 the same measures were 1 fold and 4.5 nM.
The matching figures for B6: 1.2 fold and 5.5 nM.
In the case of B7, the “Bioactivity relative to TL1A-0002” value amounted to 1.1 fold and the IC50 was 5 nM.
Regarding B8, the “Bioactivity relative to TL1A-0002” value was found to be 1.2 fold and the concentration for half-maximal inhibition (IC50) turned out to be 5.4 nM.
For B9 the same measures were 1 fold and 4.5 nM.
For B10 the same measures were 1.5 fold and 6.8 nM.
Turning to B11, the “Bioactivity relative to TL1A-0002” value was 2.7 fold and the half-maximal inhibitory concentration (IC50) worked out at 12 nM.
As for B12, the “Bioactivity relative to TL1A-0002” value worked out at 2.2 fold and the IC50 is 10 nM.
In the case of B13, the “Bioactivity relative to TL1A-0002” value was 1.1 fold and the IC50 is 4.8 nM.
For B14 the same measures were 1.2 fold and 5.2 nM.
For B15 the same measures were 1.5 fold and 6.6 nM.
The matching figures for B16: 2.3 fold and 10.3 nM.
As for B17, the “fold reduction of TL1A binding properties compared to TL1A-0002” value is over 300 fold.
As to B18, the “Bioactivity relative to TL1A-0002” value worked out at 2.7 fold and the IC50 was 11.9 nM.
With B19, the “Bioactivity relative to TL1A-0002” value was 1.4 fold and the half-maximal inhibitory concentration (IC50) is 6.5 nM.
The matching figures for B20: 2 fold and 9.1 nM.
For B21 the same measures were 0.9 fold and 4.2 nM.
The matching figures for B22: 1.6 fold and 7.2 nM.
As for B23, the “Bioactivity relative to TL1A-0002” value was 2 fold and the IC50 is 8.8 nM.
For B24 the same measures were 1.8 fold and 8.2 nM.
For B25 the same measures were 1.9 fold and 8.7 nM.
Turning to B26, the “Bioactivity relative to TL1A-0002” value came to 1.2 fold and the IC50 was determined as 5.4 nM.
As for B27, the “Bioactivity relative to TL1A-0002” value was 1.3 fold and the IC50 was 5.9 nM.
For B28 the same measures were 1.8 fold and 8.3 nM.

The target of the next assay is T1, recombinant human TL1A. The experiment in a line: competition ELISA, coated TL1A, competitor bio-TL1A-0002. Here is the method:
as §1
For orientation: In an ELISA, binding on a coated surface is turned into a signal by an enzyme label.
In the case of B1, the “Bioactivity relative to TL1A-0002” value amounted to 0.8 fold and the IC50 was found to be 4.2 nM.
The matching figures for B2: 1.3 fold and 6.6 nM.
